The text below walks through data of article PMC11027793 (Molecular cell, 2022).

Where two headings read alike, the source gives them in different places. Where no end group is shown, it is not given here. MBP = not defined here

First the molecules themselves.
B3: GST-Mios Ring (785–875) (domain or fragment, UniProt Q9NXC5 785-875, looked up)
chain: CALCLINMGTPVSSCPGGTKSDEKVDLSKDKKLAQFNNWFTWCHNCRHGGHAGHMLSWFRDHAECPVSACTCKCMQLDTTGNLVPAETVQP

Common to all, as to assay: pull-down
The target of experiment [1] is B3.
Experiment [2] concerns the target T1, Flag-WDR24 purified from HEK293T cells (UniProt Q96S15 1-790).
T1 sequence (looked up): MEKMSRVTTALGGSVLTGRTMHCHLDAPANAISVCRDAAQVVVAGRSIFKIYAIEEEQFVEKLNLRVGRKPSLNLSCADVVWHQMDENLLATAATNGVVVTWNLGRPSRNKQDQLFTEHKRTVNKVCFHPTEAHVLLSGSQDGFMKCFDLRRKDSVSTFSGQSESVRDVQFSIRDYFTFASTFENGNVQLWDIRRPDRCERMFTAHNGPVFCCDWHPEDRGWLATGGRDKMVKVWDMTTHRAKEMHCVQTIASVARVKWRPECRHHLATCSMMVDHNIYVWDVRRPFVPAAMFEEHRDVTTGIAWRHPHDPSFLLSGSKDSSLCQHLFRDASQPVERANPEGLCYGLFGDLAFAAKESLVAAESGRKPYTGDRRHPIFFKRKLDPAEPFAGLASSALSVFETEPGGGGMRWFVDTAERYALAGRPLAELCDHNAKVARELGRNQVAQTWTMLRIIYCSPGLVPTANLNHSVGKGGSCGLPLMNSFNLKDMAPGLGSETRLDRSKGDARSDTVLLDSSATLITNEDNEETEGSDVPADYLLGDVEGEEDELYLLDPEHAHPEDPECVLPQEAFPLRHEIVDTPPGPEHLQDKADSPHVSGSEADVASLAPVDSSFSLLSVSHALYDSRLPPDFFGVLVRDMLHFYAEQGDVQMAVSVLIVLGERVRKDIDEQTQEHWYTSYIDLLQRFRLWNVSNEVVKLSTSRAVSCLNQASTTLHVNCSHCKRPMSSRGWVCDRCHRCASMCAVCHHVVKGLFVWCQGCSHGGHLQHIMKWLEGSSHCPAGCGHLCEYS

The target in experiment [3] is T2, GST-WDR24 wild-type (full-length) (UniProt Q96S15 1-790).
T2 sequence (looked up): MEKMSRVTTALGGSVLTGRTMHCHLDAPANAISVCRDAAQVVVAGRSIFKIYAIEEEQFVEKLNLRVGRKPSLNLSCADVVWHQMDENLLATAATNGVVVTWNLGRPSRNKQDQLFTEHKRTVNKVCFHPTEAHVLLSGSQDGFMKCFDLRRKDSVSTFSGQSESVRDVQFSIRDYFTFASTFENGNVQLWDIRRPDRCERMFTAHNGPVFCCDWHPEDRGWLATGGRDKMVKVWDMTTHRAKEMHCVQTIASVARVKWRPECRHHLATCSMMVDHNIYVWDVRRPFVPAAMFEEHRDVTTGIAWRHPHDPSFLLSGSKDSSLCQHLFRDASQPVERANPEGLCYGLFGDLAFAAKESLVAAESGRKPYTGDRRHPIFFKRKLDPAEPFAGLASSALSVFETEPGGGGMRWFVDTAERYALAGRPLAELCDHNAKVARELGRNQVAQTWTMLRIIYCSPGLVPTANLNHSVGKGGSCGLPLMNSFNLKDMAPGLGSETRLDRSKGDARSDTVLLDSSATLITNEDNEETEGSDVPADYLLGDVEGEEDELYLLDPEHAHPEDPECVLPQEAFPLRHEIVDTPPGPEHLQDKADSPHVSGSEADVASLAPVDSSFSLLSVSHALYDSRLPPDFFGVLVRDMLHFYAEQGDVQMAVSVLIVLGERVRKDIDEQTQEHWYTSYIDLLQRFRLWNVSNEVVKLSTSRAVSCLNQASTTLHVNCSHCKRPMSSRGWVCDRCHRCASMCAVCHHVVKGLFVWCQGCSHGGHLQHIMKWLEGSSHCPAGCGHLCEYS

Experiment [4] has as its target T3, Flag-WDR59 purified from HEK293T cells (UniProt Q6PJI9 1-974).
T3 sequence (looked up): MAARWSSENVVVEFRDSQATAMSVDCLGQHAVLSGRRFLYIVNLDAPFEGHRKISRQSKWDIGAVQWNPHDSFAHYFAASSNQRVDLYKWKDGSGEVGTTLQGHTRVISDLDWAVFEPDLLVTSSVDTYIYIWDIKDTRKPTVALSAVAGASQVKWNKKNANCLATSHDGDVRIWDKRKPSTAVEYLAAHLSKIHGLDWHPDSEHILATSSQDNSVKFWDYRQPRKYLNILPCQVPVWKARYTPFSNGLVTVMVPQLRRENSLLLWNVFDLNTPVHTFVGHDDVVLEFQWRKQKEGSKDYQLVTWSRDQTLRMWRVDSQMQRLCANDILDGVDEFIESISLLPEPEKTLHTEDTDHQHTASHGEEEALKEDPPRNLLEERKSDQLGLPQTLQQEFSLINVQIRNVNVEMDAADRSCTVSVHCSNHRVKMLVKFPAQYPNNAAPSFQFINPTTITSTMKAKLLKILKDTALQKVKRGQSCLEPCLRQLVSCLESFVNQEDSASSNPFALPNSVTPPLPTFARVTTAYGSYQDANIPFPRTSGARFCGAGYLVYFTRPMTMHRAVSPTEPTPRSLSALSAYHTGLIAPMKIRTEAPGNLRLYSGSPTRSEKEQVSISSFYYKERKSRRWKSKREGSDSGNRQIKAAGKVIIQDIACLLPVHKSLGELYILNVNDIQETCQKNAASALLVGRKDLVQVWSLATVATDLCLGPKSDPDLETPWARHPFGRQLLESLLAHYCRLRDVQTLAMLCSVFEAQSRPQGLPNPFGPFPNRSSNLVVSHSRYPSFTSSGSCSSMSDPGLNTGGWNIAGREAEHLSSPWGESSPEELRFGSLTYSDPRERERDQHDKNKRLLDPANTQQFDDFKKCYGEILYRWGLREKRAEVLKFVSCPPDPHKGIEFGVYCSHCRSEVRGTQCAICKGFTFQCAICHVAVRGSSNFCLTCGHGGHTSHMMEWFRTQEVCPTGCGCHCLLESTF

Experiment [5] concerns the target T1, Flag-WDR24 purified from HEK293T cells. This is another data set of the same source.
The target in experiment [6] is T4, GST-WDR59 wild-type (UniProt Q6PJI9 1-974).
T4 sequence (looked up): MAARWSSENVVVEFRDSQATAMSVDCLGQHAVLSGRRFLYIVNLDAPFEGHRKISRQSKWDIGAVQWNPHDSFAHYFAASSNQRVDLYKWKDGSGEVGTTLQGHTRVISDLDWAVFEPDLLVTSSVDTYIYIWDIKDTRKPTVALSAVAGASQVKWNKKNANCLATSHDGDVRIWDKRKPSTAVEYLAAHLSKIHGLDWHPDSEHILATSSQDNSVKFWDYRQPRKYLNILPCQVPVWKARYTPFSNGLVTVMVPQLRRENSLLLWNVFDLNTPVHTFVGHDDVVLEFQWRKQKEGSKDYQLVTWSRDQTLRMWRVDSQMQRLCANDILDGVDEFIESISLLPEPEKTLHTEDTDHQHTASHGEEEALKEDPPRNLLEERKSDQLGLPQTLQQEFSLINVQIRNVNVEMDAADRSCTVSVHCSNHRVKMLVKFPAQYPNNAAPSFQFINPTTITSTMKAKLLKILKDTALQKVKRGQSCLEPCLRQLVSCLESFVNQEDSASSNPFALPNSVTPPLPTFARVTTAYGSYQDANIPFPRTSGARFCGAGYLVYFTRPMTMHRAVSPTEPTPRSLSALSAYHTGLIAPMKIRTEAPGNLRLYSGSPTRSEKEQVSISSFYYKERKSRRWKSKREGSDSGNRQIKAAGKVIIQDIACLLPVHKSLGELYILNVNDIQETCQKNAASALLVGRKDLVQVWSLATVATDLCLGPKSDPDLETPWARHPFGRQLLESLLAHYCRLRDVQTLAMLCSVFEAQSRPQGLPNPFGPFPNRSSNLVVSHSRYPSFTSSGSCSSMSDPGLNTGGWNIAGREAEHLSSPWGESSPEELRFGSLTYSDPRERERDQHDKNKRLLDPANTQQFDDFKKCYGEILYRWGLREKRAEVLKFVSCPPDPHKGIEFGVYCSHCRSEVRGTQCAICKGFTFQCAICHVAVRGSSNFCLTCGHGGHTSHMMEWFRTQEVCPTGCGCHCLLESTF

B1: His-MBP-WDR59 Ring (924–974) (domain or fragment, UniProt Q6PJI9 924-974, looked up)
chain: {His-MBP}-CAICHVAVRGSSNFCLTCGHGGHTSHMMEWFRTQEVCPTGCGCHCLLESTF
modifications: cysteine pairing not given here; reading uncertain
As to B1, the binding result in experiment [1] is “binds”.

B2: His6-tag UBE2D3 (enzyme)
chain: not shown
As to B2, the binding result in experiment [2] and in experiment [3] was “binds” each time. On to B3, for which the binding result in experiment [4] and in experiment [5] was “binds” each time. As to {His-MBP}-CAVCHHVVKGLFVWCQGCSHGGHLQHIMKWLEGSSHCPAGCGHLCEYS (domain or fragment, UniProt Q96S15 743-790, looked up, cysteine pairing not given here; reading uncertain) [His-MBP-WDR24 Ring (743–790)], the binding result in experiment [1] is given as “binds”.

B4: Flag-Mios purified from HEK293T cells (natural protein, UniProt Q9NXC5 1-875, looked up)
chain: MSGTKPDILWAPHHVDRFVVCDSELSLYHVESTVNSELKAGSLRLSEDSAATLLSINSDTPYMKCVAWYLNYDPECLLAVGQANGRVVLTSLGQDHNSKFKDLIGKEFVPKHARQCNTLAWNPLDSNWLAAGLDKHRADFSVLIWDICSKYTPDIVPMEKVKLSAGETETTLLVTKPLYELGQNDACLSLCWLPRDQKLLLAGMHRNLAIFDLRNTSQKMFVNTKAVQGVTVDPYFHDRVASFYEGQVAIWDLRKFEKPVLTLTEQPKPLTKVAWCPTRTGLLATLTRDSNIIRLYDMQHTPTPIGDETEPTIIERSVQPCDNYIASFAWHPTSQNRMIVVTPNRTMSDFTVFERISLAWSPITSLMWACGRHLYECTEEENDNSLEKDIATKMRLRALSRYGLDTEQVWRNHILAGNEDPQLKSLWYTLHFMKQYTEDMDQKSPGNKGSLVYAGIKSIVKSSLGMVESSRHNWSGLDKQSDIQNLNEERILALQLCGWIKKGTDVDVGPFLNSLVQEGEWERAAAVALFNLDIRRAIQILNEGASSEKGDLNLNVVAMALSGYTDEKNSLWREMCSTLRLQLNNPYLCVMFAFLTSETGSYDGVLYENKVAVRDRVAFACKFLSDTQLNRYIEKLTNEMKEAGNLEGILLTGLTKDGVDLMESYVDRTGDVQTASYCMLQGSPLDVLKDERVQYWIENYRNLLDAWRFWHKRAEFDIHRSKLDPSSKPLAQVFVSCNFCGKSISYSCSAVPHQGRGFSQYGVSGSPTKSKVTSCPGCRKPLPRCALCLINMGTPVSSCPGGTKSDEKVDLSKDKKLAQFNNWFTWCHNCRHGGHAGHMLSWFRDHAECPVSACTCKCMQLDTTGNLVPAETVQP
On to B4, for which the binding result in experiment [6] is given as “binds”.

B5: GST-fusion protein of full-length wild-type Mios (natural protein, UniProt Q9NXC5 1-875, looked up)
chain: MSGTKPDILWAPHHVDRFVVCDSELSLYHVESTVNSELKAGSLRLSEDSAATLLSINSDTPYMKCVAWYLNYDPECLLAVGQANGRVVLTSLGQDHNSKFKDLIGKEFVPKHARQCNTLAWNPLDSNWLAAGLDKHRADFSVLIWDICSKYTPDIVPMEKVKLSAGETETTLLVTKPLYELGQNDACLSLCWLPRDQKLLLAGMHRNLAIFDLRNTSQKMFVNTKAVQGVTVDPYFHDRVASFYEGQVAIWDLRKFEKPVLTLTEQPKPLTKVAWCPTRTGLLATLTRDSNIIRLYDMQHTPTPIGDETEPTIIERSVQPCDNYIASFAWHPTSQNRMIVVTPNRTMSDFTVFERISLAWSPITSLMWACGRHLYECTEEENDNSLEKDIATKMRLRALSRYGLDTEQVWRNHILAGNEDPQLKSLWYTLHFMKQYTEDMDQKSPGNKGSLVYAGIKSIVKSSLGMVESSRHNWSGLDKQSDIQNLNEERILALQLCGWIKKGTDVDVGPFLNSLVQEGEWERAAAVALFNLDIRRAIQILNEGASSEKGDLNLNVVAMALSGYTDEKNSLWREMCSTLRLQLNNPYLCVMFAFLTSETGSYDGVLYENKVAVRDRVAFACKFLSDTQLNRYIEKLTNEMKEAGNLEGILLTGLTKDGVDLMESYVDRTGDVQTASYCMLQGSPLDVLKDERVQYWIENYRNLLDAWRFWHKRAEFDIHRSKLDPSSKPLAQVFVSCNFCGKSISYSCSAVPHQGRGFSQYGVSGSPTKSKVTSCPGCRKPLPRCALCLINMGTPVSSCPGGTKSDEKVDLSKDKKLAQFNNWFTWCHNCRHGGHAGHMLSWFRDHAECPVSACTCKCMQLDTTGNLVPAETVQP
In the case of B5, the binding result in experiment [4] is given as “binds”.

B6: Flag-Sestrin2 (pRK5-FLAG-Sestrin2) (natural protein, UniProt P58004 1-480, looked up)
chain: MIVADSECRAELKDYLRFAPGGVGDSGPGEEQRESRARRGPRGPSAFIPVEEVLREGAESLEQHLGLEALMSSGRVDNLAVVMGLHPDYFTSFWRLHYLLLHTDGPLASSWRHYIAIMAAARHQCSYLVGSHMAEFLQTGGDPEWLLGLHRAPEKLRKLSEINKLLAHRPWLITKEHIQALLKTGEHTWSLAELIQALVLLTHCHSLSSFVFGCGILPEGDADGSPAPQAPTPPSEQSSPPSRDPLNNSGGFESARDVEALMERMQQLQESLLRDEGTSQEEMESRFELEKSESLLVTPSADILEPSPHPDMLCFVEDPTFGYEDFTRRGAQAPPTFRAQDYTWEDHGYSLIQRLYPEGGQLLDEKFQAAYSLTYNTIAMHSGVDTSVLRRAIWNYIHCVFGIRYDDYDYGEVNQLLERNLKVYIKTVACYPEKTTRRMYNLFWRHFRHSEKVHVNLLLLEARMQAALLYALRAITRYMT
Regarding B6, in experiment [3], the binding result is reported as “binds”.
